These results are taken from US12221465.

The target in this test is empty A2-SABR pulsed with soluble MART1 peptide (…) (Homo sapiens; human) (UniProt P61769). Kind of test: cell-based or functional assay.

For the substance F5 TCR, the fold decrease in antigen sensitivity (concentration of the peptide required for half-maximal signaling), SABR signaling against TCR signaling was 30 fold.
